Results taken from PMC2190564.

Target: yeast actin filaments (S. cerevisiae) (UniProt P60010)
Test: co-sedimentation

Question: With “native yeast Abp1p (from UniProt P15891 1-592) (natural protein)” as the substance, how does the Kd read?
Answer: < 100 nM

Question: And the stoichiometry N (Abp1p per actin (molar))?
Answer: 1
